{
  "source": "paper PMC10272179",
  "about": "“Structural insight into the human SID1 transmembrane family member 2 reveals its lipid hydrolytic activity” (Nature Communications, 2023)",
  "key": {"[1]": {"substrate": "CCCCCCCCCCCCC/C=C/[C@@H](O)[C@H](CO)NC(=O)CCCCCCCCCCCCCCCCC", "experiment": "LC-MS quantification of sphingosine, Michaelis-Menten fit", "format": "biochemical, Homo sapiens", "settings": "0.3 μM enzyme, 25 mM Tris pH 8.0, 150 mM NaCl, 0.02% DDM, 0.002% CHS micelles, room temperature, 30 min"}, "[2]": {"biological_target": "the molecule itself", "experiment": "cryo-EM structure; purified SIDT2 in GDN micelles; three samples: pH 7.4 (HEPES, 150 mM NaCl), pH 5.5 (MES) and pH 5.5 plus miRNA2911 (RNA:protein 5:1); refinement with C2 symmetry; no conformational change between the three"}},
  "data": [
    {"protein": "human SIDT2 (SID1 transmembrane family member 2) (Homo sapiens) (protein, full-length (832 residues, with signal peptide), C-terminal FLAG and His8 tags, expressed in HEK293F, purified in GDN; homodimer) HLGVLGPKNVSQKDAEFERTYVDEVNSELVNIYTFNHTVTRNRTEGVRVSVNVLNKQKGAPLLFVVRQKEAVVSFQVPLILRGMFQRKYLYQKVERTLCQPPTKNESEIQFFYVDVSTLSPVNTTYQLRVSRMDDFVLRTGEQFSFNTTAAQPQYFKYEFPEGVDSVIVKVTSNKAFPCSVISIQDVLCPVYDLDNNVAFIGMYQTMTKKAAITVQRKDFPSNSFYVVVVVKTEDQACGGSLPFYPFAEDEPVDQGHRQKTLSVLVSQAVTSEAYVSGMLFCLGIFLSFYLLTVLLACWENWRQKKKTLLVAIDRACPESGHPRVLADSFPGSSPYEGYNYGSFENVSGSTDGLVDSAGTGDLSYGYQGRSFEPVGTRPRVDSMSSVEEDDYDTLTDIDSDKNVIRTKQYLYVADLARKDKRVLRKKYQIYFWNIATIAVFYALPVVQLVITYQTVVNVTGNQDICYYNFLCAHPLGNLSAFNNILSNLGYILLGLLFLLIILQREINHNRALLRNDLCALECGIPKHFGLFYAMGTALMMEGLLSACYHVCPNYTNFQFDTSFMYMIAGLCMLKLYQKRHPDINASAYSAYACLAIVIFFSVLGVVFGKGNTAFWIVFSIIHIIATLLLSTQLYYMGRWKLDSGIFRRILHVLYTDCIRQCSGPLYVDRMVLLVMGNVINWSLAAYGLIMRPNDFASYLLAIGICNLLLYFAFYIIMKLRSGERIKLIPLLCIVCTSVVWGFALFFFFQGLSTWQKTPAESREHNRDCILLDFFDDHDIWHFLSSIAMFGSFLVLLTLDDDLDTVQRDKIYVF", "values": [
      {"measurement": "Km", "setting": "[1]", "result": 9.0, "unit": "µM"},
      {"measurement": "kcat", "setting": "[1]", "result": 0.00012, "unit": "s⁻¹"}
    ]},
    {"protein": "human SID1 transmembrane family member 2 (SIDT2), full-length (natural protein, UniProt Q8NBJ9 19-832, looked up, N-linked glycans resolved at N27, N54, N60, N123, N141 and N165, SIDT2, human, full-length cDNA; 832-amino acid protein with a signal peptide, BRD1 (23-152), BRD2 (157-287), CTD between TM1 and TM2, and eleven TMs; Expressed from the full-length cDNA with its own signal peptide; also called apoSIDT2-pH 7.4; apoSIDT2-pH 5.5) HLGVLGPKNVSQKDAEFERTYVDEVNSELVNIYTFNHTVTRNRTEGVRVSVNVLNKQKGAPLLFVVRQKEAVVSFQVPLILRGMFQRKYLYQKVERTLCQPPTKNESEIQFFYVDVSTLSPVNTTYQLRVSRMDDFVLRTGEQFSFNTTAAQPQYFKYEFPEGVDSVIVKVTSNKAFPCSVISIQDVLCPVYDLDNNVAFIGMYQTMTKKAAITVQRKDFPSNSFYVVVVVKTEDQACGGSLPFYPFAEDEPVDQGHRQKTLSVLVSQAVTSEAYVSGMLFCLGIFLSFYLLTVLLACWENWRQKKKTLLVAIDRACPESGHPRVLADSFPGSSPYEGYNYGSFENVSGSTDGLVDSAGTGDLSYGYQGRSFEPVGTRPRVDSMSSVEEDDYDTLTDIDSDKNVIRTKQYLYVADLARKDKRVLRKKYQIYFWNIATIAVFYALPVVQLVITYQTVVNVTGNQDICYYNFLCAHPLGNLSAFNNILSNLGYILLGLLFLLIILQREINHNRALLRNDLCALECGIPKHFGLFYAMGTALMMEGLLSACYHVCPNYTNFQFDTSFMYMIAGLCMLKLYQKRHPDINASAYSAYACLAIVIFFSVLGVVFGKGNTAFWIVFSIIHIIATLLLSTQLYYMGRWKLDSGIFRRILHVLYTDCIRQCSGPLYVDRMVLLVMGNVINWSLAAYGLIMRPNDFASYLLAIGICNLLLYFAFYIIMKLRSGERIKLIPLLCIVCTSVVWGFALFFFFQGLSTWQKTPAESREHNRDCILLDFFDDHDIWHFLSSIAMFGSFLVLLTLDDDLDTVQRDKIYVF", "values": [
      {"measurement": "stoichiometry N", "setting": "[2]", "result": 2}
    ]}
  ]
}
